According to PMC6155142, “OCP–FRP protein complex topologies suggest a mechanism for controlling high light tolerance in cyanobacteria” (Nature Communications, 2018):
Substitutions are numbered along the chain they refer to. Names may count otherwise. “And” between values parts separate entries of the source, which are not always exact repeats. Identical values can stand only once. One block for each molecule: values may come before it.

T1: OCP–F299C mutant of Synechocystis OCP (Synechocystis sp. PCC 6803, UniProt P74102 1-317, F299C)
T1 sequence (looked up): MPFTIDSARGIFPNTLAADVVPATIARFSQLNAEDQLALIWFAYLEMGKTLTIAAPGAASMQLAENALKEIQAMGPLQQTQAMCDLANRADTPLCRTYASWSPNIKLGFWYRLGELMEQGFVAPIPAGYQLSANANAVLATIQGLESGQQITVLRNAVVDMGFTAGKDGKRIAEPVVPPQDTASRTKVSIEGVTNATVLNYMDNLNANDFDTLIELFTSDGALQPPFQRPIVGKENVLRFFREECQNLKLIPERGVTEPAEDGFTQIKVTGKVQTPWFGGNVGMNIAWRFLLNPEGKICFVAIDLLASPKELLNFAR

T2: ∆NTE^O, orange form of Synechocystis OCP lacking the N-terminal extension (residues 1–20) (Synechocystis sp. PCC 6803, UniProt P74102 21-317)
T2 construct: orange carotenoid protein (OCP) of Synechocystis sp; PCC 6803 without the NTE (residues 1–20); also called ∆NTE^O monomer
T2 sequence (looked up): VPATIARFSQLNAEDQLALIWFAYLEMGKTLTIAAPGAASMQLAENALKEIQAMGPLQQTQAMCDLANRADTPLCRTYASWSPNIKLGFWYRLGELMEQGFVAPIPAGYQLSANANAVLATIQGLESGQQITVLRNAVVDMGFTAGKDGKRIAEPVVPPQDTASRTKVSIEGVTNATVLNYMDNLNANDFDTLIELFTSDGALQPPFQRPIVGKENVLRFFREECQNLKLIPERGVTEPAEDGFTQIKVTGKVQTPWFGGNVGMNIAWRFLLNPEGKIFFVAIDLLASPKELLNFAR

T3: OCP^Y201A/W288A, constantly active mutant of Synechocystis orange carotenoid protein (Synechocystis sp. PCC 6803, UniProt P74102 1-317, Y201A | W288A)
T3 construct: orange carotenoid protein (OCP) of Synechocystis sp; PCC 6803 with Y201A and W288A; also called OCP^AA
T3 sequence (looked up): T1 sequence (looked up) with Y201A, W288A, C299F

T4: COCP, individual C-terminal domain of Synechocystis OCP (amino acids 165–317) (Synechocystis sp. PCC 6803, UniProt P74102 165-317)
T4 construct: C-terminal domain of the orange carotenoid protein (OCP) of Synechocystis sp; PCC 6803, amino acids 165–317; also called CTD; individual CTD
T4 sequence (looked up): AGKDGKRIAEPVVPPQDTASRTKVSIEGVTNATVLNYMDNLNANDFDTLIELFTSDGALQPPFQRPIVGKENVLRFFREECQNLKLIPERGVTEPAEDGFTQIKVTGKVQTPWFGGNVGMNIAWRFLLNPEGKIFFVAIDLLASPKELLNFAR

T5: oxidized FRPcc (L33C/I43C mutant of Synechocystis FRP), disulfide-trapped dimer (Synechocystis, UniProt P74103 1-109, L33C | I43C, intersubunit disulfide bridges between C33 and C43)
T5 sequence: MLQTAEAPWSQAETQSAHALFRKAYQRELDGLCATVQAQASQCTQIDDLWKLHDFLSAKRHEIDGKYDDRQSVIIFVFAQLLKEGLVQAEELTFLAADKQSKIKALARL

B1: wild-type Synechocystis fluorescence recovery protein (FRP), His6-tagged, residues 1–109 (natural protein, UniProt P74103 1-109, looked up)
chain: T5 sequence with C33L, C43I
notes: fluorescence recovery protein (FRP) of Synechocystis, residues 1–109; cloned into pQE81L by BamHI/HindIII; Uncleavable tag; Dissociable dimer; also called FRPwt; wild-type FRP; not shown: His6, N-terminal, kept
B2: FRPcc (L33C/I43C mutant of Synechocystis FRP) under reducing conditions (natural protein, UniProt P74103 1-109, looked up)
chain: T5 sequence
notes: fluorescence recovery protein (FRP) of Synechocystis, residues 1–109, with L33C and I43C; made from the His6-tagged wild-type template; Cysteines reduced; dissociable dimer (dimeric above 10 µM load, partly dissociates on dilution); also called redFRPcc; not shown: His6, N-terminal, kept
B3: FRP–K102C mutant of Synechocystis FRP (natural protein, UniProt P74103 1-109, looked up)
chain: T5 sequence with C33L, C43I, K102C
notes: fluorescence recovery protein (FRP) of Synechocystis with K102C, from M1 (N-terminus after cleavage of the tag: GPDPATM1LQ…); the wild-type construct is residues 1–109; pQE81M vector; the His6 tag is cleavable by 3C protease and leaves GPDPAT before M1
B4: oxidized FRPcc (L33C/I43C mutant of Synechocystis FRP), disulfide-trapped dimer (natural protein, UniProt P74103 1-109, looked up)
chain: T5 sequence
modifications: intersubunit disulfide bridges between C33 and C43
notes: fluorescence recovery protein (FRP) of Synechocystis, residues 1–109, with L33C and I43C; made from the His6-tagged wild-type template; Same polypeptide as m3, but covalently fixed as a dimer that cannot monomerize; 22 N-terminal residues of the construct are absent from 4JDX; also called oxFRPcc; oxFRPcc dimer; source: E. coli T7 SHuffle express, purified in the absence of reducing agents, …
B5: ∆NTE^O, orange form of Synechocystis OCP lacking the N-terminal extension (residues 1–20) (domain or fragment)
chain: T2 sequence (looked up)

Experiments:
[1] = biological target: OCP(O) (Synechocystis sp.) (UniProt P74102); settings: cited from earlier work
[2] = biological target: ∆NTE^O, orange form of Synechocystis OCP lacking the N-terminal extension (residues 1–20) (Synechocystis sp. PCC 6803) (UniProt P74102); experiment: cross-linking; FRP species, ∆NTE^O or their mixtures in 20 mM Hepes-NaOH pH 7.5, 150 mM NaCl, 0.1 mM EDTA; 0.1% glutaraldehyde, 25 min, room temperature; 15% SDS-PAGE (no reducing agents with oxFRPcc); settings: scale: FRP chains per OCP
[3] = biological target: the molecule itself; experiment: SEC; FRP species alone, 1–40 µM per monomer, pre-incubated at least 20 min at room temperature; Superdex 200 Increase 10/300; 20 mM Tris-HCl pH 7.6, 150 mM NaCl, 0.1 mM EDTA, 3 mM βME (reducing); dimer to monomers
[4] = biological target: B5
[5] = biological target: T1, OCP–F299C mutant of Synechocystis OCP; experiment: cell-based or functional assay
[6] = biological target: T2, ∆NTE^O, orange form of Synechocystis …; experiment: cross-linking; FRP species, ∆NTE^O or their mixtures in 20 mM Hepes-NaOH pH 7.5, 150 mM NaCl, 0.1 mM EDTA; 0.1% glutaraldehyde, 25 min, room temperature; 15% SDS-PAGE (no reducing agents with oxFRPcc); settings: both partners purified
[7] = biological target: T3, OCP^Y201A/W288A, constantly active …; experiment: SEC; redFRPcc or FRP-L49E (50 µM) pre-incubated with OCP^AA (37 µM), ∆NTE^O (6 µM) or COCP (8 µM); Superdex 200 Increase 10/300; 280 nm and carotenoid-specific absorbance; settings: both partners purified
[8] = biological target: T2, ∆NTE^O, orange form of Synechocystis …; experiment: as above; settings: both partners purified
[9] = biological target: T4, COCP, individual C-terminal domain of …; experiment: as above; settings: both partners purified
[10] = biological target: T1, OCP–F299C mutant of Synechocystis OCP; experiment: cross-linking; disulfide trapping: OCP–F299C apoform mixed with FRP–F76C or FRP–K102C, oxidized in the dark by dialysis at 4 °C against GSH/GSSG (or 30–60 min with 10–50 mM H2O2); SDS-PAGE with or without 20 mM βME; settings: both partners purified
[11] = biological target: T2, ∆NTE^O, orange form of Synechocystis …; experiment: SAXS; oxFRPcc alone (1.7 mg ml^−1) and the ∆NTE^O–oxFRPcc complex (2.41 mg ml^−1, ~40 µM); batch mode, 10 °C, SEC buffer with 3% glycerol, no reducing agents; settings: both partners purified
[12] = biological target: the molecule itself; experiment: as above
[13] = biological target: T5, oxidized FRPcc (L33C/I43C mutant of …)

Molecule: FRP (from UniProt P74103)
Kd [1]: 35 µM

stoichiometry N [2]: 1 and 2
Molecule: FRP homolog from Anabaena variabilis (natural protein)

Molecule: B1
stoichiometry N [3]: 2
Kd [4]: 190 nM
acceleration of the R–O conversion of photoactivated OCP–F299C at 25 °C [5]: ~20 fold
stoichiometry N [6]: 1 FRP chains per OCP (printed as OCP:FRP 1:1) and 2 FRP chains per OCP (printed as OCP:FRP 1:2)

Molecule: B2
binding result [7]: binds
binding result [8]: binds
binding result [9]: binds
stoichiometry N [3]: 2

Molecule: B3
stoichiometry N [10]: 1 FRP chains per OCP (printed as 1:1)

Molecule: B4
stoichiometry N [11]: 2 FRP chains per OCP (printed as 2:1)
stoichiometry N [12]: 2
stoichiometry N [6]: 2 FRP chains per OCP (printed as OCP:FRP 1:2) and 1 FRP chains per OCP (printed as OCP:FRP 2:2)

Molecule: B5
Kd [13]: 220 nM
